The target of the assay is T1, Bacillus subtilis γ-glutamyltranspeptidase large (L) subunit (Bacillus subtilis, UniProt P54422 36-402).
T1 construct: γ-glutamyltranspeptidase (GGT; EC 2.3.2.2) of Bacillus subtilis, large subunit, residues 36-402, formed from the precursor by autocatalytic cleavage before Thr403; The range 36-402 is what it gives for the L subunit of the protein; The His-tag segment and residues 396-402 are disordered in the crystal; also called GGT L subunit; His6-GGT (large subunit); source: E. coli C41(DE3), plasmid pCold …
T1 sequence (looked up): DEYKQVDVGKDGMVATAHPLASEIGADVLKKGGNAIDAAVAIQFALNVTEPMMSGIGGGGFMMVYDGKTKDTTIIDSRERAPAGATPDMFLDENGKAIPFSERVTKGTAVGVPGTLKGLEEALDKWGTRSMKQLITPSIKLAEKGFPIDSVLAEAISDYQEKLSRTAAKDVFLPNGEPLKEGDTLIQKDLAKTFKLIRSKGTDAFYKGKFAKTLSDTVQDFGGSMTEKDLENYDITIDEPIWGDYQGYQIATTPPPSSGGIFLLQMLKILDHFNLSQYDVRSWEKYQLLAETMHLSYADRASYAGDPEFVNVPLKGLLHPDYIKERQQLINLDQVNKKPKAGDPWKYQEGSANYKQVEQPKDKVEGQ
In words: crystal structure; micro-oil batch method at 293 K; 10 mg/ml protein in 50 mM HEPES pH 7.0 mixed with 26%(w/v) PEG 3350, 0.7 M sodium thiocyanate, 6%(v/v) ethylene glycol; crystals soaked 2 h in 5 mM acivicin; refined at 1.8 Å; one heterodimer in the asymmetric unit. To be noted: both partners purified.

1 molecule from paper PMC3940202, “Structure of Bacillus subtilis γ-glutamyltranspeptidase in complex with acivicin: diversity of the binding mode of a classical and electrophilic active-site-directed glutamate analogue” (Acta Crystallographica Section D: Biological Crystallography, 2014) can be followed below.

B1: Bacillus subtilis γ-glutamyltranspeptidase small (S) subunit (enzyme, UniProt P54422 403-587, looked up)
chain: TTHFTVADRWGNVVSYTTTIEQLFGTGIMVPDYGVILNNELTDFDAIPGGANEVQPNKRPLSSMTPTILFKDDKPVLTVGSPGGATIISSVLQTILYHIEYGMELKAAVEEPRIYTNSMSSYRYEDGVPKDVLSKLNGMGHKFGTSPVDIGNVQSISIDHENGTFKGVADSSRNGAAIGINLKRK
modifications: acivicin covalently bound through its C3 atom to Thr403 Oγ (crystal soaked for 120 min, PDB 3whs; not in the crystal without soaking, PDB 3whq)
notes: γ-glutamyltranspeptidase (GGT); Made as one His6-tagged precursor with the L subunit and processed autocatalytically; also called GGT S subunit
In the case of B1, the binding result is “binds”.
